# In patent US20240116985A1 (published 2024):
# Starred links: 1 amine or outer side, 2 acyl side, 3 side chain; linkers in the order of their positions; H or OH if unused. Positions of bridges follow the written chain, without caps; N, C: chain ends. Non-standard residues stand in square brackets, D forms with d. Primed or numbered codes have the meaning given here. B5(29) = 2-amino-2-(pent-4-en-1-yl)hept-6-enoic acid (2,2-bis(4-pentenyl)glycine), stitching residue bearing both staples, C=CCCCC(CCCC=C)(N[*:1])C(=O)[*:2]; PyrS2″ = (S)-3-amino-1-((pent-4-en-1-yloxy)carbonyl)pyrrolidine-3-carboxylic acid (stapling residue), C=CCCCOC(=O)N1CC[C@@](N[*:1])(C(=O)[*:2])C1; B5(17) = 2,2-bis(4-pentenyl)glycine = 2-amino-2-(pent-4-en-1-yl)hept-6-enoic acid, stitching residue, C=CCCCC(CCCC=C)(N[*:1])C(=O)[*:2]; B5(6) = 2-amino-2-(pent-4-en-1-yl)hept-6-enoic acid (bis(4-pentenyl)glycine), stitching residue, C=CCCCC(CCCC=C)(N[*:1])C(=O)[*:2]; B5(3) = 2,2-bis(4-pentenyl)glycine (stitching residue), C=CCCCC(CCCC=C)(N[*:1])C(=O)[*:2]; Bta = N[C@@H](Cc1csc2ccccc12)C(=O)O; αAllylPro = C=CC[C@@]1(C(=O)O)CCCN1; tBuAla = CC(C)(C)C[C@H](N)C(=O)O; 3Thi = N[C@@H](Cc1ccsc1)C(=O)O; S8 = C=CCCCCCC[C@](C)(N)C(=O)O; hSer = N[C@@H](CCO)C(=O)O
# T1: B-cat-Halo (UniProt P35222 2-781)
# T1 sequence (looked up): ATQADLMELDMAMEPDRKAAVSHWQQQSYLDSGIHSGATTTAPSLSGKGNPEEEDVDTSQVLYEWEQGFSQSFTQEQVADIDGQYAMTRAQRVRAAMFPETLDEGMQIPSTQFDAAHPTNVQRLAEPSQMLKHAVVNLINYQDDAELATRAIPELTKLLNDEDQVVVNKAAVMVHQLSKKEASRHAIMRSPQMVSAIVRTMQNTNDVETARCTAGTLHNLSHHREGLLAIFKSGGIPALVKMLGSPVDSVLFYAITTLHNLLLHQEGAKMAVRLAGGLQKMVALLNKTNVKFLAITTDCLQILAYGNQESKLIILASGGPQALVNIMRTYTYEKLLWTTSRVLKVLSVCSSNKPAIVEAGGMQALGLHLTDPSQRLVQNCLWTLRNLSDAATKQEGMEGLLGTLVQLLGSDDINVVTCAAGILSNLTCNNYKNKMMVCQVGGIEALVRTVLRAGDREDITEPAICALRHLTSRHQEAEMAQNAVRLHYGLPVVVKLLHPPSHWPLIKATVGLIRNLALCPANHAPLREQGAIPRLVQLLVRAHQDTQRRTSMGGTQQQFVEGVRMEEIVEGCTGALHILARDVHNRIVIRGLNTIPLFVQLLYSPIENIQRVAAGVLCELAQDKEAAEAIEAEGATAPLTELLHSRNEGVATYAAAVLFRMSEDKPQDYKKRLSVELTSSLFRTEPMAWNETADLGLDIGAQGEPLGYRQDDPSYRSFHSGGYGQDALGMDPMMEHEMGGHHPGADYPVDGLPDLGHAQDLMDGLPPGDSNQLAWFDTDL
# T2: full-length beta-Catenin (Uniprot ID P35222) (Homo sapiens (Human), UniProt P35222 2-781)
# T2 construct: No tag is stated for the FP assay; also called bCat; B-Catenin
# T2 sequence: T1 sequence (looked up)
# T3: full-length beta-Catenin (Uniprot ID P35222) (Homo sapiens (Human), UniProt P35222 2-781)
# T3 construct: the AlphaScreen assay uses a Histidine (Nickel Chelate) detection kit, so a His tag is likely there; also called B-Catenin; bCat
# T3 sequence: T1 sequence (looked up)
# B1: I-1796 (peptide)
# peptide: Ac-[αAllylPro]D[tBuAla][B5(3)]DHAAFL[PyrS2″][3Thi][Bta]Q-NH2
# modifications: staple 1-4, 4-11; not fully specified; printed as Ac-PL3-Asp-Npg-B5-Asp-His-Ala-Ala-Phe-Leu-PyrS2-3Thi-BztA-Gln-NH2
# B2: I-472 (peptide)
# peptide: Ac-[αAllylPro]DI[B5(29)]DEAAFN[S8]F[Bta]H-NH2
# modifications: staple 1-4, 4-11
# notes: Stapled (stitched) peptide composition
# B3: I-471 (peptide)
# peptide: Ac-[αAllylPro]DI[B5(6)]DEAAFQ[S8]F[Bta]H-NH2
# modifications: staple 1-4, 4-11
# notes: as for B2
# B4: I-475 (peptide)
# peptide: XDIXDEAAFNXFXQ
# modifications: not fully specified; Ac-PL3-Asp-aIle-B5-Asp-Glu-Ala-Ala-Phe-Asn-S8-Phe-BztA-Gln-NH2; N-terminal acetyl, C-terminal amide; PL3(1)-B5(4) and B5(4)-S8(11) stapled by olefin metathesis; aIle at 3; BztA at 13
# notes: Stapled peptide; this is the earlier eluting HPLC peak (staple isomer composition)
# B5: I-476 (peptide)
# peptide: XDIXDEAAFNXFXQ
# modifications: not fully specified; Ac-PL3-Asp-aIle-B5-Asp-Glu-Ala-Ala-Phe-Asn-S8-Phe-BztA-Gln-NH2; N-terminal acetyl, C-terminal amide; PL3(1)-B5(4) and B5(4)-S8(11) stapled by olefin metathesis; aIle at 3; BztA at 13
# notes: Stapled peptide; this is the later eluting HPLC peak (staple isomer composition)
# B6: I-478 (peptide)
# peptide: XDAXDEAAFNXFXH
# modifications: not fully specified; Ac-PL3-Asp-Ala-B5-Asp-Glu-Ala-Ala-Phe-Asn-S8-Phe-BztA-1MeH-NH2; N-terminal acetyl, C-terminal amide; PL3(1)-B5(4) and B5(4)-S8(11) stapled by olefin metathesis; BztA at 13; 1MeH at 14
# notes: as for B4
# B7: I-479 (peptide)
# peptide: XDAXDEAAFNXFXH
# modifications: not fully specified; Ac-PL3-Asp-Ala-B5-Asp-Glu-Ala-Ala-Phe-Asn-S8-Phe-BztA-1MeH-NH2; N-terminal acetyl, C-terminal amide; PL3(1)-B5(4) and B5(4)-S8(11) stapled by olefin metathesis; BztA at 13; 1MeH at 14
# notes: as for B5
# B8: I-495 (peptide)
# peptide: XDIXDEAAFQXFXN
# modifications: not fully specified; Ac-PL3-Asp-Ile-B5-Asp-Glu-Ala-Ala-Phe-Gln-S8-Phe-BztA-Asn-NH2; N-terminal acetyl, C-terminal amide; PL3(1)-B5(4) and B5(4)-S8(11) stapled by olefin metathesis; BztA at 13
# notes: as for B2
# B9: I-494 (peptide)
# peptide: XDAXDEAAFQXFXQ
# modifications: not fully specified; Ac-PL3-Asp-Ala-B5-Asp-Glu-Ala-Ala-Phe-Gln-S8-Phe-BztA-DGIn-NH2 (so in the source); D-Gln at 14); N-terminal acetyl, C-terminal amide; PL3(1)-B5(4) and B5(4)-S8(11) stapled by olefin metathesis; BztA at 13
# notes: as for B2
# B10: I-477 (peptide)
# peptide: Ac-[αAllylPro]DT[B5(29)]DEAAFQ[S8]F[Bta]Q-NH2
# modifications: staple 1-4, 4-11
# notes: as for B2
# B11: I-491 (peptide)
# peptide: Ac-[αAllylPro]DA[B5(17)]DEAAFQ[S8]F[Bta][hSer]-NH2
# modifications: staple 1-4, 4-11; also: earlier eluting HPLC peak, E/Z not assigned
# notes: as for B4
# B12: I-492 (peptide)
# peptide: Ac-[αAllylPro]DA[B5(17)]DEAAFQ[S8]F[Bta][hSer]-NH2
# modifications: staple 1-4, 4-11; also: later eluting HPLC peak, E/Z not assigned
# notes: as for B5
# B13: I-493 (peptide)
# peptide: XDAXDEAAFQXFXS
# modifications: not fully specified; Ac-PL3-Asp-Ala-B5-Asp-Glu-Ala-Ala-Phe-Gln-S8-Phe-BztA-DSer-NH2; N-terminal acetyl, C-terminal amide; PL3(1)-B5(4) and B5(4)-S8(11) stapled by olefin metathesis; BztA at 13; D-Ser at 14
# notes: as for B2
# B14: I-496 (peptide)
# peptide: Ac-[αAllylPro]DA[B5(17)][hSer]EAAFQ[S8]F[Bta]Q-NH2
# modifications: staple 1-4, 4-11; not fully specified; printed as Ac-PL3-Asp-Ala-B5-Hse-Glu-Ala-Ala-Phe-Gln-S8-Phe-BztA-Gln-NH2
# notes: Stapled peptide; this is the first eluting HPLC peak (staple isomer composition)
# B15: I-497 (peptide)
# peptide: Ac-[αAllylPro]DA[B5(6)][hSer]EAAFQ[S8]F[Bta]Q-NH2
# modifications: staple 1-4, 4-11; not fully specified; printed as Ac-PL3-Asp-Ala-B5-Hse-Glu-Ala-Ala-Phe-Gln-S8-Phe-BztA-Gln-NH2
# notes: Stapled peptide; this is the second eluting HPLC peak (staple isomer composition)
# B16: I-498 (peptide)
# peptide: Ac-[αAllylPro]DA[B5(6)][hSer]EAAFQ[S8]F[Bta]Q-NH2
# modifications: staple 1-4, 4-11; not fully specified; printed as Ac-PL3-Asp-Ala-B5-Hse-Glu-Ala-Ala-Phe-Gln-S8-Phe-BztA-Gln-NH2
# notes: Stapled peptide; this is the third eluting HPLC peak (staple isomer composition)
# B17: I-172 (peptide)
# peptide: XDAXDXAAFVXFWQ
# modifications: not fully specified; as printed: Ac-PL3-Asp-Ala-B5-Asp-EtGA-Ala-Ala-Phe-Val-S8-Phe-Trp-Gln-NH2; N-terminal acetyl, C-terminal amide; PL3(1), B5(4), EtGA(6), S8(11); staples PL3-B5 and B5-S8 by olefin metathesis
# notes: stapled peptide
# B18: I-173 (peptide)
# peptide: XDAXDXAAFVXFWQ
# modifications: not fully specified; as printed: Ac-PL3-Asp-Ala-B5-Asp-EtGA-Ala-Ala-Phe-Val-S8-Phe-Trp-Gln-NH2; N-terminal acetyl, C-terminal amide; PL3(1), B5(4), EtGA(6), S8(11); staples PL3-B5 and B5-S8 by olefin metathesis
# notes: stapled peptide
# Target: T1, B-cat-Halo
# Assay: cell-based or functional assay
row,Binder,NanoBRET Abs IC50 [nM]
1,B1,> 20000

# Target: T2, full-length beta-Catenin (Uniprot ID …)
# Assay: fluorescence polarization competition; full-length beta-catenin with 5FAM-TCF4(10-53) probe as competitor
# Method: (§1) The plate was incubated protected from light for 60 minutes at 20° C. prior to read. Reads were performed on a CLARIOstar plate reader (BMG Labtech) in duplicate, and data were fitted to a 1:1 binding model with hill slope using an in-house script. All provided concentrations are final concentrations.
row,Binder,IC50 [nM]
1,B2,62
2,B3,52
3,B4,102
4,B5,48
5,B6,71
6,B7,27
7,B8,181
8,B9,82
9,B10,119
10,B11,153
11,B12,53
12,B13,88
13,B14,5000
14,B15,5000
15,B16,5000

# Target: T3, full-length beta-Catenin (Uniprot ID …)
# Assay: as above
# Method: as §1
row,Binder,EC50 [nM]
1,B17,5000
2,B18,3120
